Assay [1] has as its target phosphotyrosine-binding domain (PTB)-containing axonal proteins.
Assay [2] deals with endogenous PTB-containing squid proteins.

With “GST–AICD (APP intracellular domain fused to glutathione-S-transferase) (domain or fragment)”, in assay [1], the mean anterograde FAT rate, vesicle motility assay in isolated squid axoplasm perfused with 100 nM GST–AICD (Buffer X/2 1.64) was found to be 1.2 µm/s and the mean retrograde FAT rate, vesicle motility assay in isolated squid axoplasm perfused with 100 nM GST–AICD (Buffer X/2 1.23) was found to be 1.02 µm/s. In assay [2], this substance registered a mean anterograde FAT rate, vesicle motility assay in isolated squid axoplasm; 100 nM GST–AICD co-perfused with an excess of Fe65 PTB2-6xHis as competitor (GST–AICD alone 1.20; Buffer X/2 1.64) of 1.4 µm/s and a mean retrograde FAT rate, vesicle motility assay in isolated squid axoplasm; 100 nM GST–AICD co-perfused with an excess of Fe65 PTB2-6xHis as competitor (GST–AICD alone 1.02; Buffer X/2 1.23) of 1.19 µm/s.

With GST–AICDΔNPTY (domain or fragment), in assay [1], the mean anterograde FAT rate, vesicle motility assay in isolated squid axoplasm perfused with 100 nM GST–AICDΔNPTY (GST–AICD 1.20; Buffer X/2 1.64) amounted to 1.5 µm/s and the mean retrograde FAT rate, vesicle motility assay in isolated squid axoplasm perfused with 100 nM GST–AICDΔNPTY (GST–AICD 1.02; Buffer X/2 1.23) is 1.14 µm/s.

The values above are taken from article PMC10572015.
